Molecular target: T1, Vin WT GFP (GFP-fused vinculin WT) (UniProt Q64727 1-1066)
T1 sequence (looked up): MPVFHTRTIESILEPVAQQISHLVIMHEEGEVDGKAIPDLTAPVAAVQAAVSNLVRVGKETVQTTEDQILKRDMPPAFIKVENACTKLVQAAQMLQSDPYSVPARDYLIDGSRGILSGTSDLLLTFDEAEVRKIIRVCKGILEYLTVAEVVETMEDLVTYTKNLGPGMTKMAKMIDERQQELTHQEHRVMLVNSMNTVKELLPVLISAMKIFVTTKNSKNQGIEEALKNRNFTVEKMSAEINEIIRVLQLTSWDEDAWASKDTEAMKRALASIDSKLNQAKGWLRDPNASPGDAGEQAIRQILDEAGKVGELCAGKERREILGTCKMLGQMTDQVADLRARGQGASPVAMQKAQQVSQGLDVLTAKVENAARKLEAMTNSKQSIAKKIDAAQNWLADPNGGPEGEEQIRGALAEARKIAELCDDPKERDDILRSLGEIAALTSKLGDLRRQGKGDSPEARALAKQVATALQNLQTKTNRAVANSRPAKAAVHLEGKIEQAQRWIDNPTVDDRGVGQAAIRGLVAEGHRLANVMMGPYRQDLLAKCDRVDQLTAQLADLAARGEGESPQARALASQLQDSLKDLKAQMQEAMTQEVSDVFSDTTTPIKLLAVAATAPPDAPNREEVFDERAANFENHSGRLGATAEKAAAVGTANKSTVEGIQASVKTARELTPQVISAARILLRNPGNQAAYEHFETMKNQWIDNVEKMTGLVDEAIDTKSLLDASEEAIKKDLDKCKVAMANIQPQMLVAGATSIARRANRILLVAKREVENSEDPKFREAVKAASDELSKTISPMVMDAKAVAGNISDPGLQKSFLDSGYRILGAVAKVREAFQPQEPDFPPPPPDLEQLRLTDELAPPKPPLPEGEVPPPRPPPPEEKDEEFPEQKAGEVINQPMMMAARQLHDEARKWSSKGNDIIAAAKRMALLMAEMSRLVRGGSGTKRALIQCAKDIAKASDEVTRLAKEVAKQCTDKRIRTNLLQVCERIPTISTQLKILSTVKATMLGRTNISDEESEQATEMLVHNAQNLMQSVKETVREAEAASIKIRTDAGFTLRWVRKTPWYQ
Assay: cell-based or functional assay

fold change of CAS Y410 phosphorylation after 20 % static stretch for 10 min, Vin-/- MEFs re-expressing WT vinculin: 2.4 fold
B1: full-length CAS (in Vin-/- MEFs) (natural protein, mouse (endogenous in MEFs), UniProt Q61140 1-874, looked up)
chain: MTVPNVLAKALYDNVAESPDELSFRKGDIMTVLERDTQGLDGWWLCSLHGRQGIVPGNRLKILVGMYDKKPVGPGPGPPATPPQPQPSLPQGVHAPVPPASQYSPMLPTAYQPQSDNVYLVPTPSKTQQGLYQAPGPNPQFQSPPAKQTSTFSKQTPHHSFPSPATDLYQVPPGPGSPAQDIYQVPPSAGIGHDIYQVPPSLDTRGWEGTKPPAKVVVPTRVGQGYVYEAAQTEQDEYDTPRHLLAPGPQDIYDVPPVRGLLPNQYGQEVYDTPPMAVKGPNGRDPLLDVYDVPPSVEKGLLSSSHHSVYDVPPSVSKDVPDGPLLREETYDVPPAFAKPKPFDPTRHPLILAAPPPDSPAAEDVYDVPPPAPDLYDVPPGLRRPGPGTLYDVPRERVLPPEVADGSVVDDGVYAVPPPAEREAPTDGKRLSASSTGSTRSSQSASSLEVVVPGREPLELEVAVESLARLQQGVSTTVAHLLDLVGSASGPGGWRGTSEPQEPPAQDLKAAVAAVHGAVHELLEFARGAVSNATHTSDRTLHAKLSRQLQKMEDVYQTLVVHGQVLDSGRGSPGFTPEDLDRLVACSRAVPEDAKQLASFLHGNASLLFRRTKAPGPGPEGSSSLHPNPTDKASSIQSRPLPSPPKFTSQDSPDGQYENSEGGWMEDYDYVHLQGKEEFEKTQKELLERGNIMRQGKGQLELQQLKQFERLEQEVSRPIDHDLANWTPAQPLVPGRTGGLGPSDRQLLLFYLEQCEANLTTLTDAVDAFFTAVATNQPPKIFVAHSKFVILSAHKLVFIGDTLSRQAKAADVRSQVTHYSNLLCDLLRGIVATTKAAALQYPSPSAAQDMVDRVKELGHSTQQFRRVLGQLAAA
